Assay results as given in the supplement of paper PMC11908140.

B1: library; numbered along this chain (parent)
chain: MRKPRAAVGSGHRKQAASQEGRQKHAKNNSQAKPSACDGLARQPEEVVLQASVSSYHLFRDVAEVTAFRGSLLSWYDQEKRDLPWRRRAEDEMDLDRRAYAVWVSEVMLQQTQVATVINYYTGWMQKWPTLQDLASASLEEVNQLWAGLGYYSRGRRLQEGARKVVEELGGHMPRTAETLQQLLPGVGRYTAGAIASIAFGQATGVVDGNVARVLCRVRAIGADPSSTLVSQQLWGLAQQLVDPARPGDFNQAAMELGATVCTPQRPLCSQCPVESLCRARQRVEQEQLLASGSLSGSPDVEECAPNTGQCHLCLPPSEPWDQTLGVVNFPRKASRKPPREESSATCVLEQPGALGAQILLVQRPNSGLLAGLWEFPSVTWEPSEQLQRKALLQELQRWAGPLPATHLRHLGEVVHTFSHIKLTYQVYGLALEGQTPVTTVPPGARWLTQEEFHTAAVSTAMKKVFRVYQGQQPGTCMGSKRSQVSSPCSRKKPRMGQQVLDNFFRSHISTDAHSLNSAAQ

Variants of: B1
Assay: 8OG:A repair function score (normalized; synonymous = 0, nonsense = -1) (normalized log-likelihood score); higher = more repair activity (WT-like)
Conditions: with 8OG:A DNA repair reporter (GFP) in HEK-293 MUTYH KO cells
Outline: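 Per-tile Rosace fitness scores were converted to a normalized repair function score anchored on synonymous and nonsense distributions. That scale puts synonymous medians at 0 and nonsense medians at -1. Variants with starting counts under 300 counts per million were discarded. Input came from sorting viable mCherry+ MUTYH knockout HEK-293 cells, carrying lentiviral MUTYH cDNA NNN codon-scan libraries in 10 pg/ml doxycycline and an 8OG:A GFP repair reporter, into GFP+ and GFP− bins at 72 h, three replicates per tile, followed by tile amplicon sequencing.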
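Note: cells sorted at 72 h after reporter transfection.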

8OG:A repair function score: each site, then its substitutions
T191: W -1.2; H -0.486; F -1.01
L184: V -0.238; K -0.925; F -0.304; M -0.281; N -0.987; W -1.13; R -1.2; G -0.899; T -0.62; C -0.317; E -1.09; H -1.05; A -0.718; I -0.0822; Q -0.899; S -0.911; D -1.16; P -1.21; Y -0.855
G188: D -1.09; F -1.06; V -1.04; H -0.662; T -1.03; R -0.844; M -0.929; Q -0.909; P -0.845; W -1.02; K -1.11; C -0.839; N -0.923; L -0.95; A -0.365; Y -0.89; E -0.866; S -0.643; I -1.11
P174: W -1.14; I -0.9; Q -0.827; H -0.972; T -0.922; M -0.732; A -0.706; K -0.797; C -0.583; L -0.947; G -0.814; D -0.922; Y -0.958; V -0.797; N -0.958; R -0.877; F -0.961; E -0.932; S -0.753
V187: L -0.609
G186: W -1.08; C -0.439; Q -0.401; K -0.9; M -0.885; V -0.852; T -0.373; F -1.04; P -0.924; I -1.23; A -0.672; N -0.814; S -0.34; D -0.855; R -1.16; Y -0.992; E -0.989; L -1.02; H -0.754
Q181: H -0.175; A -0.034; N -0.118; P -0.726; W -0.337; T -0.0945; D -0.331; M -0.0648; C -0.121; S -0.0472; R -0.0552; Y 0.00604; G -0.165; V -0.114; K -0.0739; I -0.0381; E 0.0231; L -0.0425; F -0.0623
M173: S -0.859; V -0.0935; Y -0.366; T -0.402; W -0.276; R -1.15
Q182: A 0.0281; I -0.0148; E -0.0278; G -0.00226; F -0.161; V -0.022; N -0.133; D -0.0172; C -0.0792; L -0.0117; S 0.0262; K 0.129; W -0.114; T -0.0374; M -0.0488; Y 0.00409; R -0.0127; H 0.0507; P -0.18
A192: F -1.12; C -0.572; G -0.105; E -0.908; D -0.927
P185: G -0.141; M -0.282; I -0.275; Y -0.363; R -0.264; F -0.285; K -0.102; H -0.43; T -0.242; W -0.553; C -0.242; V -0.299; D -0.333; S -0.221; E -0.168; N -0.12; L -0.344; A -0.225; Q -0.197
R189: H -0.228; P 0.136; K -0.0681; D -0.22; T -0.184; Q -0.208; A -0.136; W -0.343; V -0.148; F -0.222; Y -0.336; S -0.0964; I -0.335; N -0.421; E -0.385; L -0.316; C -0.258; M -0.341; G -0.299
